Patent US20120237948

Biological target: MMP13-undigested human type II collagen (UniProt P02458)
Sequence (P02458 182-1241): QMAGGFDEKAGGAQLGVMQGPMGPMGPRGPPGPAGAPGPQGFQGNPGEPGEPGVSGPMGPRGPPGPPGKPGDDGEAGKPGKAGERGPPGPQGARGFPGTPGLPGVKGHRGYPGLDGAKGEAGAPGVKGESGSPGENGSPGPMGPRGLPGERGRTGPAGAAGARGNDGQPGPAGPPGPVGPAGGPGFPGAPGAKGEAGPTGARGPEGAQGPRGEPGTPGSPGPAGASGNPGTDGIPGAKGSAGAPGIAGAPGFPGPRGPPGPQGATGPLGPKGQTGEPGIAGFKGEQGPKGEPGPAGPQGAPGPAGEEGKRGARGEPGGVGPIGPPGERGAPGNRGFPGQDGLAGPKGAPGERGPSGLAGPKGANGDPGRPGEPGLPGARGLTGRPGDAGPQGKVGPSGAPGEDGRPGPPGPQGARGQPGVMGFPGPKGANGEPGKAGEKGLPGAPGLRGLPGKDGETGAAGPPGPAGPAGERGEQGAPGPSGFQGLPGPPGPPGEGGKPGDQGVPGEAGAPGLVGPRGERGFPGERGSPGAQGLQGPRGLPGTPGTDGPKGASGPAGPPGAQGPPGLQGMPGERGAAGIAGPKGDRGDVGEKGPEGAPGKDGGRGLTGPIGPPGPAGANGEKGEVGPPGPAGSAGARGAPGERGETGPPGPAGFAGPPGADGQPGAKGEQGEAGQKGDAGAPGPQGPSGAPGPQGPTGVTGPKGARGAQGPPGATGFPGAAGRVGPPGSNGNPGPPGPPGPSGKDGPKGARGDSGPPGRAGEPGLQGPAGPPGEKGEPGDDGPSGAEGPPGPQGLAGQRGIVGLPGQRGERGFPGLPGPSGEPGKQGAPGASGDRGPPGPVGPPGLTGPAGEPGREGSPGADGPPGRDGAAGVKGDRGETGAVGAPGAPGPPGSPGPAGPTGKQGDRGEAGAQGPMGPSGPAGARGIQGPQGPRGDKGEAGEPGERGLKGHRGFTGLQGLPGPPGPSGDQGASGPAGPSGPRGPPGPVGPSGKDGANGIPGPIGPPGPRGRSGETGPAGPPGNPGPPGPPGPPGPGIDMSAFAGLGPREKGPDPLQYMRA

activated human MMP13
amount of the collagen neoepitope in the enzyme-reaction buffer (sandwich ELISA of Example 4): the measurements of the neoepitope increased in a manner dependent on the dose of MMP13 added
